The source of these data is US20240261333A1 (published 2024).

This test deals with T1, CD276, endogenous in A375 melanoma cells (human, UniProt Q5ZPR3 29-534, poly-LacNAc glycosylation added by B3GNT2 (sites not given)).
T1 construct: whole, on cells; On fixed A375 cells in flow cytometry; In the co-IP it comes from the lysate of these cells; also called B7H3
T1 sequence (looked up): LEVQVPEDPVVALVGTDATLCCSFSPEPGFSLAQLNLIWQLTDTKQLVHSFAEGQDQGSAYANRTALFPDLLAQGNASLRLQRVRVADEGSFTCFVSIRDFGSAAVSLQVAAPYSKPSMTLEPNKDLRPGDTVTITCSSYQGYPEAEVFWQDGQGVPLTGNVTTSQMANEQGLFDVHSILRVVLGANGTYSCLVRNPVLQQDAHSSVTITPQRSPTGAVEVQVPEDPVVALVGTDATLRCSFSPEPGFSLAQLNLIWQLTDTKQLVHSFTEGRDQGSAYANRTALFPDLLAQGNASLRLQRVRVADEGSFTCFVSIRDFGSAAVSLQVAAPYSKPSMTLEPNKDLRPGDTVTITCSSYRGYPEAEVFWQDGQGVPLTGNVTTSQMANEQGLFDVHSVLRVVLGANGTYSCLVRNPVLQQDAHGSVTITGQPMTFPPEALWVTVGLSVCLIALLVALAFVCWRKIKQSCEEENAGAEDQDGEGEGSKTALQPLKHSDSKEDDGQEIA
The experiment in a line: flow cytometry of TREML2 Fc chimera on fixed A375 cells with CD276 knocked down by CRISPR. (Flow cytometry measures light scatter and fluorescence of single cells or particles in a stream.)

B1: TREML2 recombinant Fc chimera protein (R&D Systems 3259-TL-050) (Fc fusion, UniProt Q5T2D2 19-268, looked up)
chain: GPSADSVYTKVRLLEGETLSVQCSYKGYKNRVEGKVWCKIRKKKCEPGFARVWVKGPRYLLQDDAQAKVVNITMVALKLQDSGRYWCMRNTSGILYPLMGFQLDVSPAPQTERNIPFTHLDNILKSGTVTTGQAPTSGPDAPFTTGVMVFTPGLITLPRLLASTRPASKTGYSFTATSTTSQGPRRTMGSQTVTASPSNARDSSAGPESISTKSGDLSTRSPTTGLCLTSRSLLNRLPSMPSIRHQDVYS
notes: Bought reagent; also called TLT2; Fc part of the bought chimera not given
Regarding B1, the binding result was “no binding (tested: 25 µg/mL)”.
